{"source": "patent US20190233539A1", "experiment_in_all_cases": "BIAcore SPR, koff against wild-type Fc", "key": {"CD32A^H": {"molecular_target": "CD32A^H (UniProt P12318)", "sequence (P12318 34-217 limits assumed)": "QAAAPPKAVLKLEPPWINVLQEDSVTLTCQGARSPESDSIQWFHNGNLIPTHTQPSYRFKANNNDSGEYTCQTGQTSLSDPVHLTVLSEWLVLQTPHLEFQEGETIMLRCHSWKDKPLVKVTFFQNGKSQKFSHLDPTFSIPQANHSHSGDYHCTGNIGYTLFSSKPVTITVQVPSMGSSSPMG"}, "CD32B (FcγRII-B)": {"molecular_target": "CD32B (FcγRII-B) (UniProt P31994)", "sequence (P31994 43-217 limits assumed)": "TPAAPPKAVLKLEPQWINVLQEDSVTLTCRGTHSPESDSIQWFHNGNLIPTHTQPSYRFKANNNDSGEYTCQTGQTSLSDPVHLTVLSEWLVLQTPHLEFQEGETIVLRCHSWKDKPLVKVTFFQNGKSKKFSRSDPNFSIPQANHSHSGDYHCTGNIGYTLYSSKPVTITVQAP"}, "[1]": {"molecular_target": "CD16A with Val at position 158 (human) (UniProt P08637)", "sequence (P08637 17-208 F176V limits assumed)": "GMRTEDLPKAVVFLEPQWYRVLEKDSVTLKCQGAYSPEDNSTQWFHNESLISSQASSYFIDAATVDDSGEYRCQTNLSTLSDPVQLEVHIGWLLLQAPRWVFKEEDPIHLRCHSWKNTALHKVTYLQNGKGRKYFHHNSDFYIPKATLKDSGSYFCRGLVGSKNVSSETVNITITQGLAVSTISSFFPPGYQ"}, "[2]": {"molecular_target": "CD16A with Phe at position 158 (human) (UniProt P08637)", "sequence (P08637 17-208 limits assumed)": "as the sequence (P08637 17-208 F176V limits assumed) above, with V160F counted along it"}}, "data": [{"substance": "Fc mutant 7 (A330V)", "values": [{"measurement": "WT koff/mutant koff", "setting": "CD32A^H", "result": 0.4}, {"measurement": "WT koff/mutant koff", "setting": "CD32B (FcγRII-B)", "result": 0.3}, {"measurement": "WT koff/mutant koff", "setting": "[1]", "result": 0.6}, {"measurement": "WT koff/mutant koff", "setting": "[2]", "result": 1.2}]}, {"substance": "Fc mutant 5 (Y300L)", "values": [{"measurement": "WT koff/mutant koff", "setting": "CD32A^H", "result": 2.9}, {"measurement": "WT koff/mutant koff", "setting": "CD32B (FcγRII-B)", "result": 1.2}, {"measurement": "WT koff/mutant koff", "setting": "[2]", "result": 1.2}]}, {"substance": "Fc mutant 8 (P396L)", "values": [{"measurement": "WT koff/mutant koff", "setting": "CD32A^H", "result": 1.6}, {"measurement": "WT koff/mutant koff", "setting": "CD32B (FcγRII-B)", "result": 2.6}, {"measurement": "WT koff/mutant koff", "setting": "[1]", "result": 1.3}]}, {"substance": "Fc mutant 2 (D270E)", "values": [{"measurement": "WT koff/mutant koff", "setting": "CD32A^H", "result": 2.2}, {"measurement": "WT koff/mutant koff", "setting": "CD32B (FcγRII-B)", "result": 0.4}, {"measurement": "WT koff/mutant koff", "setting": "[1]", "result": 1.3}]}, {"substance": "Fc mutant 3 (R292P)", "values": [{"measurement": "WT koff/mutant koff", "setting": "CD32A^H", "result": 0.7}, {"measurement": "WT koff/mutant koff", "setting": "CD32B (FcγRII-B)", "result": 0.3}, {"measurement": "WT koff/mutant koff", "setting": "[1]", "result": 2.4}, {"measurement": "WT koff/mutant koff", "setting": "[2]", "result": 1.6}]}, {"substance": "Fc mutant 10 (F243L, R292P)", "values": [{"measurement": "WT koff/mutant koff", "setting": "CD32A^H", "result": 0.5}, {"measurement": "WT koff/mutant koff", "setting": "CD32B (FcγRII-B)", "result": 0.2}, {"measurement": "WT koff/mutant koff", "setting": "[1]", "result": 4}]}, {"substance": "Fc mutant 1 (F243L)", "values": [{"measurement": "WT koff/mutant koff", "setting": "CD32A^H", "result": 0.6}, {"measurement": "WT koff/mutant koff", "setting": "CD32B (FcγRII-B)", "result": 0.8}, {"measurement": "WT koff/mutant koff", "setting": "[1]", "result": 4.8}]}, {"substance": "Fc mutant 4 (S298N)", "values": [{"measurement": "WT koff/mutant koff", "setting": "CD32B (FcγRII-B)", "result": 0.2}]}, {"substance": "Fc mutant 13 (F243L, R292P, V305I)", "values": [{"measurement": "WT koff/mutant koff", "setting": "CD32A^H", "result": 0.2}, {"measurement": "WT koff/mutant koff", "setting": "CD32B (FcγRII-B)", "result": 0.1}, {"measurement": "WT koff/mutant koff", "setting": "[1]", "result": 2.6}, {"measurement": "WT koff/mutant koff", "setting": "[2]", "result": 1.4}]}, {"substance": "Fc mutant 6 (V305I)", "values": [{"measurement": "WT koff/mutant koff", "setting": "CD32A^H", "result": 1.3}, {"measurement": "WT koff/mutant koff", "setting": "CD32B (FcγRII-B)", "result": 1.2}, {"measurement": "WT koff/mutant koff", "setting": "[1]", "result": 0.9}, {"measurement": "WT koff/mutant koff", "setting": "[2]", "result": 0.6}]}, {"substance": "Fc mutant 17 (F243L, R292P, V305I, P396L)", "values": [{"measurement": "WT koff/mutant koff", "setting": "CD32A^H", "result": 0.8}, {"measurement": "WT koff/mutant koff", "setting": "CD32B (FcγRII-B)", "result": 0.4}, {"measurement": "WT koff/mutant koff", "setting": "[1]", "result": 4}, {"measurement": "WT koff/mutant koff", "setting": "[2]", "result": 2.3}]}, {"substance": "Fc mutant 11 (R292P, V305I)", "values": [{"measurement": "WT koff/mutant koff", "setting": "CD32A^H", "result": 0.8}, {"measurement": "WT koff/mutant koff", "setting": "CD32B (FcγRII-B)", "result": 0.4}]}, {"substance": "Fc mutant 14 (F243L, R292P, P396L)", "values": [{"measurement": "WT koff/mutant koff", "setting": "CD32A^H", "result": 1.4}, {"measurement": "WT koff/mutant koff", "setting": "CD32B (FcγRII-B)", "result": 0.4}, {"measurement": "WT koff/mutant koff", "setting": "[1]", "result": 6.3}]}, {"substance": "Fc mutant 9 (F243L, P396L)", "values": [{"measurement": "WT koff/mutant koff", "setting": "CD32A^H", "result": 1.5}, {"measurement": "WT koff/mutant koff", "setting": "CD32B (FcγRII-B)", "result": 1.6}]}, {"substance": "Fc mutant 16 (F243L, R292P, Y300L, P396L)", "values": [{"measurement": "WT koff/mutant koff", "setting": "CD32A^H", "result": 1.7}, {"measurement": "WT koff/mutant koff", "setting": "CD32B (FcγRII-B)", "result": 1.1}, {"measurement": "WT koff/mutant koff", "setting": "[1]", "result": 10.1}, {"measurement": "WT koff/mutant koff", "setting": "[2]", "result": 5.6}]}, {"substance": "Fc mutant 12 (F243L, R292P, Y300L)", "values": [{"measurement": "WT koff/mutant koff", "setting": "CD32A^H", "result": 1}, {"measurement": "WT koff/mutant koff", "setting": "CD32B (FcγRII-B)", "result": 0.6}, {"measurement": "WT koff/mutant koff", "setting": "[1]", "result": 7.4}, {"measurement": "WT koff/mutant koff", "setting": "[2]", "result": 4.6}]}, {"substance": "Fc mutant 18 (F243L, R292P, Y300L, V305I, P396L)", "values": [{"measurement": "WT koff/mutant koff", "setting": "CD32A^H", "result": 3.2}, {"measurement": "WT koff/mutant koff", "setting": "CD32B (FcγRII-B)", "result": 1.4}, {"measurement": "WT koff/mutant koff", "setting": "[1]", "result": 10.1}, {"measurement": "WT koff/mutant koff", "setting": "[2]", "result": 8.3}]}, {"substance": "Fc mutant 15 (R292P, V305I, P396L)", "values": [{"measurement": "WT koff/mutant koff", "setting": "CD32A^H", "result": 1.5}, {"measurement": "WT koff/mutant koff", "setting": "CD32B (FcγRII-B)", "result": 0.9}, {"measurement": "WT koff/mutant koff", "setting": "[1]", "result": 1.9}, {"measurement": "WT koff/mutant koff", "setting": "[2]", "result": 1.9}]}]}
